Test results published in PMC4441422.

What was measured:
[1] = molecular target: T1, full-length catalytic domain of human N-myristoyltransferase 1 (hNMT1s) (human) (UniProt P30419)
T1 sequence: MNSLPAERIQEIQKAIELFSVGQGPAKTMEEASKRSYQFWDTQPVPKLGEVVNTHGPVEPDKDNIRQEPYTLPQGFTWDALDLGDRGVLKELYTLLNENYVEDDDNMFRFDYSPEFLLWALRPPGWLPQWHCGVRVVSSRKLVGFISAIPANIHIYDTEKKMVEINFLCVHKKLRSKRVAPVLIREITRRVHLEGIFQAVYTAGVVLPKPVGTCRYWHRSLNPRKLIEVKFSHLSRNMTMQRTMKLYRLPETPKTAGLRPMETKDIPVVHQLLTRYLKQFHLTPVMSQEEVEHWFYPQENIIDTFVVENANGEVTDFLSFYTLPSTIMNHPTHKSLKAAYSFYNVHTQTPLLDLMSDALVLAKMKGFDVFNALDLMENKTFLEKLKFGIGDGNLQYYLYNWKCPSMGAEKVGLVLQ

[2] = molecular target: T2, truncation mutant of hNMT1s devoid of 28 N-terminal amino acids (Δ28-hNMT1s) (human) (UniProt P30419)
T2 sequence: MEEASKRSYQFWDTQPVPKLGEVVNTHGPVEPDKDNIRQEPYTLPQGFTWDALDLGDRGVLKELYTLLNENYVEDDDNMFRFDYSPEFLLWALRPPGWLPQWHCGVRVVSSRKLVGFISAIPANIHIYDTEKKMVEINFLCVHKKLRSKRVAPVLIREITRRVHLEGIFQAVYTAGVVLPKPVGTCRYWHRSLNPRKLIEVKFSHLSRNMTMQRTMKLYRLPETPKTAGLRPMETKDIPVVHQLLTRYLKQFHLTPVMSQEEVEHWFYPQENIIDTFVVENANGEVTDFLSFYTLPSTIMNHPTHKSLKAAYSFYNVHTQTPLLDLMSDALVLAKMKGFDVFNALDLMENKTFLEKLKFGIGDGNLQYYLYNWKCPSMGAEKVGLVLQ

K m (μM) for the peptide in the myristoylation reaction (fluorescence assay of CoA release with CPM; peptide 1-50 μM, MYA 30 μM, 5 nM enzyme, 25°C) [1]: 25.7 µM | K m (μM) for the peptide in the myristoylation reaction (fluorescence assay of CoA release with CPM; peptide 1-50 μM, MYA 30 μM, 5 nM enzyme, 25°C) [2]: 14.4 µM
Binder: GSNKSKPK [peptide substrate corresponding to the N-terminal sequence of pp60src (amino acids 2-9)]
